Molecular target: recombinant human TNFa (human, UniProt P01375 77-233, 125I label (only in the receptor inhibition assay))
Assay: cell-based or functional assay

Chain of recombinant human TNFa (P01375 77-233 limits assumed): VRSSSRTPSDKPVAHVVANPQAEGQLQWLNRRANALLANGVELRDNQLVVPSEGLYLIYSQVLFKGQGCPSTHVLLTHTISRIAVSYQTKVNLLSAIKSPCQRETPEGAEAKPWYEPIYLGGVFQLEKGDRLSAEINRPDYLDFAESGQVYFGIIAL

neutralizing TNFa bioactivity: 4 fold
B1: TNV196 (antibody, V domains shown)
VH: QVQLVESGGGVVQPGRSLRLSCAASGFTFSSYAMHWVRQAPGKGLEWVAFISYDGSNKKSADSVKGRFTVSRDNSKNTLFLQMNSLRAEDTAVFYCARDRGIGAGGNYYYYGMDVWGQGTTVTVSS
VL: EIVLTQSPATLSLSPGERATLSCRASQSVYSYLAWYQQKPGQAPRLLIYDASNRATGIPARFSGSGSGTDFTLTISSLEPEDFAVYYCQQRSNWPPFTFGPGTKVDIK
